{"source": "patent US7579150B1", "about": "“Mobile RNA acts as a signal to regulate plant growth and development” (Iowa State University Research Foundation, Inc., priority 2004, dated 2009)", "key": {"[1]": {"tested_on": "POTH1 overexpression lines", "experiment": "Exogenous GA3 application to POTH1 overexpression lines", "format": "in vivo, Solanum tuberosum", "details": "shoot apex sprayed with 10 μM GA3 in 0.002% (v/v) ethanol", "excerpt": "Many of the traits of the phenotypes observed in POTH1 overexpression lines were similar to GA-deficient mutants. These similarities included decreased plant height, decreased internode length, and darker green coloration of the leaves (van den Berg et al., “Morphology and [^14C]Gibberellin A12 Metabolism in Wild-Type and Dwarf Solanum Tuberosum ssp. Andigena Grown Under Long and Short Photoperiods,” J. Plant Physiol. 146:467-473 (1995), which is hereby incorporated by reference in its entirety). Because of this, exogenous GA3 was applied to determine whether the overexpression lines were responsive to GA treatment. The shoot apex of overexpression lines was sprayed to runoff with 10 μM GA3 in 0.002% (v/v) ethanol or with 0.002% (v/v) ethanol alone. […] Palisade and spongy parenchyma organization is partially rescued in leaves from line 15 treated with GA3 (FIG. 5G). The GA3-treated leaf (FIG. 5J) of the severe mutant, line 15, is more similar in morphology to the wild-type leaf (FIG. 5K). Leaflets are more ovate in form rather than the typical mouse-ear shape. Wild-type leaves have a prominent mid-vein (FIG. 5L), whereas the mid-vein (FIG. 5M, arrow) is more prominent in the mutant GA3-treated leaf than in the mutant untreated leaf (FIG. 5N). […]"}, "[2]": {"tested_on": "POTH1", "experiment": "Yeast two-hybrid interaction with POTH1 (nutritional selection, beta-galactosidase)", "format": "cell-based, potato", "details": "yeast strain AH109, nutritional markers and lacZ", "excerpt": "The Matchmaker two-hybrid system (Clontech, CA) was used for the yeast two-hybrid screen. Yeast transformation and plasmid rescue into DH5-a E. coli cells were according to the manufacturer's instructions. Full-length POTH1 was cloned into the pBridge (Clontech, CA) vector and used as bait to screen the potato (S. tuberosum ‘Desireé’) stolon cDNA library in pAD-GAL4-2.1 (Stratagene, Calif.). Positive interactions were confirmed by cotransforming yeast strain AH109 with each purified pAD plasmid and pBridge: POTH1 and plating on -leucine/-tryptophan (transformation control) and -leucine/-tryptophan/-histidine/-adenine (selection) nutrient medium. Induction of the AH109 reporter gene, lacZ, was measured with a yeast β-galactosidase assay kit (Pierce Chemicals). β-galactosidase activity (FIG. 9B) was determined from a known density of yeast cells and calculated as 1000×OD420/time of color reaction (minutes)×volume of yeast culture (ml)×OD600.\nThe StBEL-05 deletion constructs were amplified by PCR, then cloned into the vector, pGAD, in-frame with the GAL4 activation domain. POTH1 deletion constructs were amplified by PCR, and cloned into pBridge (Clontech) in-frame with the GAL4 binding domain. Sequencing of selected cDNAs and constructs was performed at the Iowa State University DNA Facility. For deletion analysis, modified constructs of POTH1 were cloned into the pBridge vector for fusion with the DNA-binding domain of GAL4 (FIG. 10A). For StBEL-05, constructs were cloned into the pGAD vector for fusion with the activating domain of GAL4 (FIG. 10B). Deletion constructs were made from both the amino and carboxy termini. These mutants were then tested for interaction in the yeast two-hybrid system by cotransforming into yeast strain AH109 with the corresponding full-length partner (StBEL-05 in pGAL4 or POTH1 in pBridge). All constructs were sequenced to verify that they were in-frame. Positive interactions were verified for lacZ induction by using a β-galactosidase assay (Pierce Chemical Company). For POTH1, seven deletion constructs were tested (FIG. 10A). For the BEL TFs, a fusion construct of StBEL-05 (653 aa of StBEL-05 sequence) and nine deletion constructs were tested (FIG. 10B)."}, "[3]": {"tested_on": "ga20ox1 promoter", "experiment": "Transcription (transfection) assay, pGAOP::GUS reporter in tobacco protoplasts", "format": "cell-based, potato", "excerpt": "The cauliflowermosaic virus (CaMV) 35S promoter in pBI221 (Clontech, Palo Alto, Calif.) was replaced by an enhancer fragment (−832 to −50) of the 35S promoter plus 980 bp of the ga20ox1 promoter to generate the pGAOP::β-glucuronidase (GUS) reporter construct. With this construct, the reporter GUS transcription level is augmented but its transcription may still be affected by the ga20ox1 promoter. A CaMV 35S promoter-driven luciferase (LUC) construct 35S-LUC (obtained from Dr. Takahashi, Dept. of Biological Sciences, Graduate School of Science, Univ. of Tokyo, Japan) was used as an internal control. Effector constructs were also generated by using pBI221 vector as a backbone, with the GUS gene replaced by the full-length cDNAs of either StBEL-05 or POTH1, downstream of the CaMV 35S promoter. Truncated cDNAs that encode the N-terminal protein-binding domains of StBEL-05 or POTH1 were used to generate the dominant negative constructs, StBEL5ΔC295 and POTH1ΔC122, respectively. The reporter construct with the mutated promoter was generated by site-directed PCR mutagenesis with oligos 5′-CTATTTGACTTC*ACACGGTTATTT-3′ (SEQ ID NO:23) and 5′-AAATAACCGTGTG*AAGTCAAATAG-3′ (SEQ ID NO:24).\nFully expanded leaves from three- to four-week-old tobacco plants were excised and placed in K3 basal media (Kao et al., “Nutritional Requirements for Growth of Vicia hajastana Cells and Protoplasts at a Very Low Density in Liquid Media,” Planta 126:105-110 (1975), which is hereby incorporated by reference in its entirety) supplemented with 0.4 M sucrose, 0.25% (w-v) cellulases (Karlan Research Products, Santa Rosa, CA), and 0.05% (w-v) macerases (Calbiochem, La Jolla, Calif.) and incubated for overnight at 28° C. After incubation, the liberated protoplasts were filtered through sterile cheesecloth into a Babcock bottle, and centrifuged for 10 minutes at 1000 rpm. Protoplasts were collected from the bottleneck area and washed once in K3 media with 0.4 M sucrose and resuspended in K3 media containing 0.4 M glucose to a final concentration of 4×10^6 protoplasts per milliliter. […]\nLuciferase assays were performed by injecting 100-μL luciferase substrate (Promega, Madison, Wis.) into 20 μL of extract and measuring the emitted photons for 15 seconds in a TD-20 luminometer (Turner Designs, Sunnyvale, Calif.). […] A fluorescence multiwell plate reader, Fluoroskan II (MTX labs, Vienna, Va.), was used to measure GUS activity at 365 nm (excitation) and 455 nm (emission). Each sample was measured three times for both LUC and GUS activity. Relative GUS-LUC activity was calculated by dividing the ratio of GUS activity to LUC activity from different effectors with the ratio from reporter plasmid alone. Relative activities calculated from three transfection replications were presented as a mean±SE."}, "[4]": {"tested_on": "CaMV 35S promoter", "experiment": "Transcription (transfection) assay, 35S GUS construct in tobacco protoplasts", "format": "cell-based, cauliflower mosaic virus"}, "[5]": {"tested_on": "ga20ox1 promoter regions P1, P2, P3 and first intron", "experiment": "Gel retardation (gel mobility shift) assay", "format": "binding, potato", "details": "recombinant protein from E. coli", "excerpt": "The first intron with partial flanking exon sequence (450 bp) of potato ga20ox1 and its promoter (981 bp, provided by Dr. Salomé Prat, CSIC Cantoblanco Campus, Univ. of Madrid, Spain) were used for gel mobility shift assays. Polymerase chain reaction (PCR) was used to amplify three regions of the promoter: −981 to 636 (P1), −660 to 307 (P2), and −331 to 0 (P3). About a 25-bp overlap was maintained between P1 and P2 or P2 and P3 in the chance that the protein-binding site would span the overlapped region. The first intron of this gene was amplified from potato genomic DNA by using PCR and the oligos 5′-[…]-3′ (SEQ ID NO:21) and 5′-[…]-3′ (SEQ ID NO:22) as primers. These primers were designed based on the site of the first intron of the tobacco GA20 oxidase gene Ntc12. The four fragments were purified on a 1.4% agarose gel and labeled with α^32P-dATP using Klenow fragment. […]\nIn the competition assays, unlabeled double-stranded DNA fragments (10×, 25×, 50×, 100×) were incubated with the recombinant protein before the addition of the radioactive probe. The dissociation rates were determined by adding 500-fold more cold DNA fragments to the DNA-binding reactions that were being incubated on ice, and loaded onto the running gel every 10 minutes. […]"}}, "note": "Entries after “also recorded” stand apart in the source; their conditions may differ.", "data": [{"molecule": "C=C1C[C@]23C[C@@]1(O)CC[C@H]2[C@@]12C=C[C@H](O)[C@@](C)(C(=O)O1)[C@H]2[C@@H]3C(=O)O", "note": "[GA3]", "values": [{"measurement": "effect on leaf morphology of POTH1 overexpression lines", "setting": "[1]", "result": "partially rescued the leaf morphology of both severe and intermediate phenotypes; also recorded: partial reversal of the leaf phenotype"}, {"measurement": "effect on plant height / dwarf phenotype of POTH1 overexpression lines", "setting": "[1]", "result": "caused plants with a severe phenotype to increase in height; also recorded: completely rescued the dwarf phenotype"}]}, {"molecule": "pAD5-9: StBEL-05 deletion construct, aa 1 through 315 (protein, left off: large carriers) MNPNNYMQGYTTSDTQQQQQLLFLNSSPAASNALCHANIQHAPLQQQHFVGVPLPAVSLHDQINHHGLLQRMWNNQDQSQQVIVPSSTGVSATSCGGITTDLASQLAFQRPIPTPQHRQQQQQQGGLSLSLSPQLQQQISFNNNISSSSPRTNNVTIRGTLDGSSSNMVLGSKYLKAAQELLDEVVNIVGKSIKGDDQKKDNSMNKESMPLASDVNTNSSGGGESSSRQKNEVAVELTTAQRQELQMKKAKLLAMLEEVEQRYRQYHHQMQIIVLSFEQVAGIGSAKSYTQLALHAISKQFRCLKDAIAEQVKAT", "values": [{"measurement": "interaction with POTH1", "setting": "[2]", "result": "interaction with POTH1"}]}, {"molecule": "POTH1: KNOX transcription factor of potato, SEQ ID NO:17, 345 aa (protein, listed as Solanum tuberosum) MDDEMYGFHSTRDDYADKALMSPENLMMQTEYNNFHNYTNSSILTSNPMMFGSDDIQLSSEQTNSFSTMTLQNNDNIYQIRSGNCGGGSGSGGSSKDHNDNNNNNEDYDEDGSNVIKAKIVSHPYYPKLLNAYIDCQKVGAPAGIVNLLEEIRQQTDFRKPNATSICIGADPELDEFMETYCDILLKYKSDLSRPFDEATTFLNKIEMQLGNLCKDDGGVSSDEELSCGEADASMRSEDNELKDRLLRKFGSHLSSLKLEFSKKKKKGKLPKEARQMLLAWWDDHFRWPYPTEADKNSLAESTGLDPKQINNWFINQRKRHWKPSENMQLAVMDNLSSQFFSSDD", "values": [{"measurement": "decrease of relative GUS-LUC activity of the pGAOP::GUS reporter", "setting": "[3]; co-transfected effector, tobacco protoplasts", "result": "more than half"}, {"measurement": "repression of ga20ox1 promoter with point mutation in the binding site", "setting": "[3]; mutated reporter construct", "result": "no detectable repression of promoter activity"}, {"measurement": "effect on activity of the CaMV 35S promoter", "setting": "[4]", "result": "Neither StBEL-05 nor POTH1 showed any effect"}, {"measurement": "binding to ga20ox1 regulatory regions", "setting": "[5]", "result": "only formed a complex with P1"}]}]}
